Assay results taken from US20230399408A1 (AB THERAPEUTICS, published 2023).

Tests used:
[1] = target: cMET (UniProt P08581); assay: BLI (Probelife)
[2] = target: c-MET-His tag protein (human) (UniProt P08581); assay: titration ELISA, c-MET-His coated
[3] = target: EGFR (UniProt P00533); assay: separate experiment, method not restated (BLI in this example), EGFR binding
[4] = target: cMET (UniProt P08581); assay: separate experiment, method not restated (BLI in this example), cMET binding
[5] = target: EGFR mutant C797S on BaF3 cells (UniProt P00533); assay: flow cytometry on EGFR mutant C797S-BaF3 cells, goat anti-human Fc-FITC
[6] = target: EGFR on NCI-H1975 cells (human) (UniProt P00533); assay: flow cytometry on H1975 cells, dilutions 2.04e-4 to 400 nM, goat anti-human Fc-FITC; whole-cell binding, the cells also carry cMET
[7] = target: cMET on NCI-H1975 cells (human) (UniProt P08581); assay: flow cytometry competition on H1975.HGF cells, streptavidin-PE; ligand biotinylated HGF; fit value of a nearly flat control curve
cMET on NCI-H1975 cells (human), sequence (P08581 25-1390): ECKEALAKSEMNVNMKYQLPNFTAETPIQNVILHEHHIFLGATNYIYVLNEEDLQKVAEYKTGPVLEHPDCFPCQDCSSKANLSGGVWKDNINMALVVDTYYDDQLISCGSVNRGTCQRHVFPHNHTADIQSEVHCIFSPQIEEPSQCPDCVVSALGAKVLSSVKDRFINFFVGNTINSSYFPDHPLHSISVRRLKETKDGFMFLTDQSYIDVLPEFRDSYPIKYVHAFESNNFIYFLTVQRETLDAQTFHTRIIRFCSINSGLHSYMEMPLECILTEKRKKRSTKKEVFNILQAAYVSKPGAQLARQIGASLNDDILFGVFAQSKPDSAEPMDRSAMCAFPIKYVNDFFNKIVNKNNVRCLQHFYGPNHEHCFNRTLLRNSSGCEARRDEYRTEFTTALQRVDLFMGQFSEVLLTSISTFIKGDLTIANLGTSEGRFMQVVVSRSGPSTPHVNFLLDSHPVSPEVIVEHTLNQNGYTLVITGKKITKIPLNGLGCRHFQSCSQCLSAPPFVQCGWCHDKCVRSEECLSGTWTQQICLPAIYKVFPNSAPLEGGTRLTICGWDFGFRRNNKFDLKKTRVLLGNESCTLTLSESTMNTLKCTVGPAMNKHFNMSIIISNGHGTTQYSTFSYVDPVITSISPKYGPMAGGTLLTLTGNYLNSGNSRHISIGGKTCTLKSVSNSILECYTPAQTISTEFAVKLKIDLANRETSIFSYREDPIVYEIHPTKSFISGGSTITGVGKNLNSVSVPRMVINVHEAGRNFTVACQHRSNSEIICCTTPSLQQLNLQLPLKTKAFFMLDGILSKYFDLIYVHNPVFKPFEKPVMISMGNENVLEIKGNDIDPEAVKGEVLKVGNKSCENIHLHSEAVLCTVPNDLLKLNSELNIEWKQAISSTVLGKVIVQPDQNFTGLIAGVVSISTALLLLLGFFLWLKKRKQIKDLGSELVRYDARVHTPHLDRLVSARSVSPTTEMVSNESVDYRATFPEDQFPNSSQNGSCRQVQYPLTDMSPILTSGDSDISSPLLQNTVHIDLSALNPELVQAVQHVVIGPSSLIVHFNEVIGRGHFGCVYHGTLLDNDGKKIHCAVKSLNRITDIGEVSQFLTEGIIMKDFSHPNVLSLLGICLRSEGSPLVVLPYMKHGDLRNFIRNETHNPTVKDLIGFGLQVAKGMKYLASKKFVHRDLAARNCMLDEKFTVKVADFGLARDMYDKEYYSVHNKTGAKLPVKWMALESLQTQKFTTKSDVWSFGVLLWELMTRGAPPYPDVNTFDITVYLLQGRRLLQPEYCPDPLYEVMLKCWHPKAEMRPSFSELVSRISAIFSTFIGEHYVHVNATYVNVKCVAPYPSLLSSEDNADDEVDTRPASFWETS

[8] = target: EGFR on NCI-H1975 cells (human) (UniProt P00533); assay: flow cytometry on H1975 cells, dilutions 2.04e-4 to 400 nM, goat anti-human Fc-FITC; fit value of a flat control curve, beyond the tested range
[9] = target: EGFR on NCI-H1975 cells (human) (UniProt P00533); assay: flow cytometry on H1975.HGF cells, goat anti-human Fc-FITC; fit value of a flat control curve; the drawn table is identical to that of FIG. 23B
[10] = target: EGFR mutant C797S on BaF3 cells (UniProt P00533); assay: flow cytometry competition on EGFR mutant C797S-BaF3 cells, streptavidin-PE; blocked ligand biotinylated EGF; fit value of a flat control curve
[11] = target: EGFR mutant C797S on BaF3 cells (UniProt P00533); assay: flow cytometry on EGFR mutant C797S-BaF3 cells, goat anti-human Fc-FITC; fit value of a flat control curve; the drawn table is identical to that of FIG. 23C
[12] = target: cMET on NCI-H1975 cells (human) (UniProt P08581); assay: flow cytometry competition on H1975 cells, streptavidin-PE; blocked ligand biotinylated HGF; fit value of a nearly flat control curve (about 6500 to 6200)
[13] = target: EGFR on NCI-H1975 cells (human) (UniProt P00533); assay: flow cytometry competition on H1975.HGF cells, streptavidin-PE; blocked ligand biotinylated EGF; fit value of a control curve that rises instead of falling
[14] = target: T1, human cMET (human, UniProt P08581 25-932); assay: binding ELISA, plate coated with human cMET at 1 ug/mL, clone at 10 ug/mL, biotinylated anti-c-Myc 9E-10 and streptavidin detection
T1 construct: Coated antigen of the cross-reactivity ELISA; also called human antigen; anti-Hu
T1 sequence (P08581 25-932): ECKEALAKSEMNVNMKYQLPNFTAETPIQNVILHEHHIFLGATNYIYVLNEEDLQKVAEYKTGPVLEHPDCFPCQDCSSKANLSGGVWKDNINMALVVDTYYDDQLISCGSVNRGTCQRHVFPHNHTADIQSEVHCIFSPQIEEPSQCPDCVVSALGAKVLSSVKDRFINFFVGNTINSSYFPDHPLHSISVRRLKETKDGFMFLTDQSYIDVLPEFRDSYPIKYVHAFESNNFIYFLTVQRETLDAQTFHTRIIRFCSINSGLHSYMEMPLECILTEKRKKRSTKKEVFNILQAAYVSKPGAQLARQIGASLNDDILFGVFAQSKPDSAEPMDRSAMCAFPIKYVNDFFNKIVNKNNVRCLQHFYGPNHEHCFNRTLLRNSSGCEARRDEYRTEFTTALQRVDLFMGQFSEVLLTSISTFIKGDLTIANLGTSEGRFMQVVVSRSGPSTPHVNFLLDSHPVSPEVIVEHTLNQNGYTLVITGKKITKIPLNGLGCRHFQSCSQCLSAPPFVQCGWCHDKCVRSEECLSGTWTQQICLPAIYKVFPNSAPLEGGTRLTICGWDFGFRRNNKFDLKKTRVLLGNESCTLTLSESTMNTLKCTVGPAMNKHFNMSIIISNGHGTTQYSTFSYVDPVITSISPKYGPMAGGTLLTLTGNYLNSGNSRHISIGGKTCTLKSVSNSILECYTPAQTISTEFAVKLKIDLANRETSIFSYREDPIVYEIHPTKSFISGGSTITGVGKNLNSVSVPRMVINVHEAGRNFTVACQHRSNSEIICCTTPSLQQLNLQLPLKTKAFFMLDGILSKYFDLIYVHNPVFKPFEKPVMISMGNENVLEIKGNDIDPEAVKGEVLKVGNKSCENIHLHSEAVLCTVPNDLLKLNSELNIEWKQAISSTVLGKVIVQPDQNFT
Protocol: A high binding ELISA plate was coated with 1 μg/mL (diluted in 1×PBS) human or monkey antigens and kept at 4° C. overnight. On the next day, the plate was blocked with a blocking buffer (4% non-fat milk in 1×PBS) for 1 hour at 37° C. After blocking, the plate was washed three times with PBST. The antibody samples to be tested were diluted in PBS and then added to the corresponding wells (10 μg/mL). The plate was incubated at 37° C. at RT for 1 hour. After the incubation, the plate was washed three times with the PBST. Next, a secondary antibody (biotinylated anti-c-Myc antibody 9E-10, diluted at 1:500) was added to the wells and the plate was incubated at 37° C. at RT for 1 hour. The plate was then washed three times with PBST. Afterwards, streptavidin-RP, diluted at 1:1000, was added to each well and then the plate was incubated at 37° C. at RT for 1 hour. After the incubation, the plate was washed four times with PBST. After washing, the plate was developed by adding the Amplex reagent substrate and then the luminescent signal was measured at 530 nm and 590 nm in a SpectraMax plate reader.

[15] = target: T2, c-MET-His tag protein (human, UniProt P08581 25-932); assay: BLI (Probelife Gator), cMET-His on HIS probe saturated with 1H1-cMET-VHH-Fc, second antibody at 5 ug/ml
T2 construct: also called cMET-HIS tagged; not shown: His tag
T2 sequence (P08581 25-932 limits assumed): as the sequence (P08581 25-932) above
Protocol: Briefly, a baseline was established using HIS probes in Quantitation (Q) buffer (a phosphate buffered saline solution with bovine serum albumin to decrease non-specific and background signal). The antigen (cMET-HIS tagged) to the HIS probe was added in 5 μg/ml cMET solution in Q buffer. HIS probes in Q buffer were used to return to the baseline. […] Finally, the secondary antibody was associated through HIS Probes in 5 μg/ml of antibody diluted in Q buffer.

cMET, sequence (P08581 25-932): as above
c-MET-His tag protein (human), sequence (P08581 25-932 limits assumed): as the sequence (P08581 25-932) above

JNJ372 analog (bispecific antibody)
Kd [1]: 0.405 nM
EC50 [2]: 4.89 ng/mL
Kd [3]: 0.689 nM
Kd [4]: 0.432 nM
EC50 (read off the curve) [5]: 3 nM
EC50 [6]: 0.46 nM

Neg.control (antibody)
EC50 [7]: 1.08 nM
EC50 [8]: 11100 nM
EC50 [9]: 26.4 nM
EC50 [10]: 0.0262 nM
EC50 [11]: 0.0262 nM
EC50 [12]: 0.112 nM
EC50 [13]: 26.4 nM

B1: 1A12 (VHH)
VHH: QVQLVESGGGLVQPGGSLRLSCAASGFTFNSYWMYWVRLAPGKGIEWVSATDTRGQNTYYTDSVKGRFTISRDNAKNMVSLQMNNLKSEDTAVYYCALGNRWGTFPNRGPGTLVTVSS
notes: it is not the VHH-Fc fusion m11; also called cMET-1A12; clone 1A12
binding result [14]: binds

B2: cMET-1A12 VHH-Fc (Fc fusion)
chain: B1 VHH
notes: not shown: hinge and Fc of the VHH-Fc
binding result [15]: binds
